Results published in US9683217B2, “In vitro culture conditions for T-cell acute lymphoblastic leukemia/lymphoma” (THE UNIVERSITY OF MIAMI, priority 2013, dated 2017).

B1: IL-7: ligand for the IL-7 receptor; recombinant cytokine supplement (protein, UniProt P13232 26-177, looked up)
Interleukin-7: DCDIEGKDGKQYESVLMVSIDQLLDSMKEIGSNCLNNEFNFFKRHICDANKEGMFLFRAARKLRQFLKMNSTGDFDLHLLKVSEGTTILLNCTGQVKGRKPAALGEAQPTKSLEENKSLKEQKKLNDLCFLKRLLQEIKTCWNKILMGTKEH
B2: CP-751,871: an IGF-1 receptor (IGF1R) blocking antibody, specific for human IGF1R (antibody, chains of the INN, looked up)
heavy: EVQLLESGGGLVQPGGSLRLSCTASGFTFSSYAMNWVRQAPGKGLEWVSAISGSGGTTFYADSVKGRFTISRDNSRTTLYLQMNSLRAEDTAVYYCAKDLGWSDSYYYYYGMDVWGQGTTVTVSSASTKGPSVFPLAPCSRSTSESTAALGCLVKDYFPEPVTVSWNSGALTSGVHTFPAVLQSSGLYSLSSVVTVPSSNFGTQTYTCNVDHKPSNTKVDKTVERKCCVECPPCPAPPVAGPSVFLFPPKPKDTLMISRTPEVTCVVVDVSHEDPEVQFNWYVDGVEVHNAKTKPREEQFNSTFRVVSVLTVVHQDWLNGKEYKCKVSNKGLPAPIEKTISKTKGQPREPQVYTLPPSREEMTKNQVSLTCLVKGFYPSDIAVEWESNGQPENNYKTTPPMLDSDGSFFLYSKLTVDKSRWQQGNVFSCSVMHEALHNHYTQKSLSLSPG
light: DIQMTQFPSSLSASVGDRVTITCRASQGIRNDLGWYQQKPGKAPKRLIYAASRLHRGVPSRFSGSGSGTEFTLTISSLQPEDFATYYCLQHNSYPCSFGQGTKLEIKRTVAAPSVFIFPPSDEQLKSGTASVVCLLNNFYPREAKVQWKVDNALQSGNSQESVTEQDSKDSTYSLSSTLTLSKADYEKHKVYACEVTHQGLSSPVTKSFNRGEC

Assays:
human T-ALL lymphoblasts = assay: Cytokine/growth factor subtraction and IGF1R blockade, resazurin-reduction cell growth assay; type: cell-based; settings: for importance of the supplemental cytokine for T-ALL growth: SCF, IGF-1, IL-2, IL-7 added alone or in combination, FIG. 3
Description: A resazurin-reduction cell growth assay was performed on (A-B) primary and (C) xenograft-expanded T-ALL. Cells were cultured and passaged as described in FIG. 1. Cytokines and growth factors were subtracted out of the complete media and cells were assayed for growth using a resazurin reduction assay. […] Significance: * p<0.05, ** p<0.01, and *** p<0.001.
Cell Titer Blue (Promega) was added to a co-culture, 5 μl/well for a 12-well plate and 1 μl/well for a 96-well plate, and allowed to incubate for 2-6 hours depending on the number and type of cells present in the well. Cultures were then analyzed using a Tecan GENios Flourometric plate reader. The plate reader was set to read from the bottom at 535 nm excitation and 590 nm emission wavelengths, at optimal gain with an integration time of 80 μs and a lag time of 0 μs. The plate was orbitally shaken in the machine for 5 sec prior to reading.
Studies were also conducted with human T-ALL primary cells (FIGS. 3A-3B) and human T-ALL cells that were previously expanded in immunodeficient NSG mice (FIG. 3C).

IGF1R = IGF1R (Homo sapiens, UniProt P08069); settings: read-out: Kd of insulin for IGF1R; cited from earlier work

Row | Molecule | importance of the supplemental cytokine for T-ALL growth (human T-ALL lymphoblasts) | further results
1 | IGF-1: ligand for a tyrosine kinase transmembrane receptor (CD221); recombinant supplement | may be dispensable | –
2 | insulin: ligand for a tyrosine kinase transmembrane receptor (CD220); component of the basal medium | – | Kd (IGF1R): 200 to 400 nM
3 | B1 | the most important factor | –
4 | B2 | – | effect of IGF1R blocking antibody on cell growth (human T-ALL lymphoblasts; T-ALL on mouse MS5-DL1 feeders): significantly impaired cell growth
